T1: Placenta Growth Factor (PlGF), human (human, UniProt P49763 21-149)
T1 chain: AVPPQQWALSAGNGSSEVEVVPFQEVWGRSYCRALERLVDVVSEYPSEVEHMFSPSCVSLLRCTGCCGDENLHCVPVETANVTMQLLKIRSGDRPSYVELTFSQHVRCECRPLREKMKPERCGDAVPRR

B1: HC 9/SLC 15 (antibody)
chain 1: GQGTLVTVSSASTKGPSVFQPVLHQPPAMSSALGTTIRLTCTLRNDHDIGVYSVYWYQQRPGHPPRFLLRYFSQSDKSQGPQVPPRFSGSKDVARNRGYLSISELQPEDEAMYYCAMGARSRCWPRGFQSKHNSVTHVFGSGTQLTVLSQPKATPSVTLFPPSSEELQANKATLVCLMNDFYPGILTVTWKADGTPITQGVEMTTPSKQSNNKYAASSYLSLTPEQWRSRRSYSCQVMHEGSTVEKTVAPAECS
chain 2: MSWAPVLLMLFVYCTGCGPQPVLHQPPAMSSALGTTIRLTCTLRNDHDIGVYSVYWYQQRPGHPPRFLLRYFSQSDKSQGPQVPPRFSGSKDVARNRGYLSISVTHVFGSGTQLTVLSQPKATPSVTGGGGSQVQLVQ
B2: HC 6/SLC 2 (antibody)
chain 1: GQGTLVTVSSASTKGPQPVLHQPPAMSSALGTTIRLTCTLRNDHDIGVYSVYWYQQRPGHPPRFLLRYFSQSDKSQGPQVPPRFSGSKDVARNRGYLSISELQPEDEAMYYCAMGARSRCWPRGFQSKHNSVTHVFGSGTQLTVLSQPKATPSVTLFPPSSEELQANKATLVCLMNDFYPGILTVTWKADGTPITQGVEMTTPSKQSNNKYAASSYLSLTPEQWRSRRSYSCQVMHEGSTVEKTVAPAECS
chain 2: MSWAPVLLMLFVYCTGCGPQPVLHQPPAMSSALGTTIRLTCTLRNDHDIGVYSVYWYQQRPGHPPRFLLRYFSQSDKSQGPQVPPRFSGSKDVARNRGYLSISVTHVFGSGTQLTVLSQQVQLVQ
B3: HC 9/SLC 2 (antibody)
chain 1: B1 chain 1
chain 2: B2 chain 2
B4: HC 5/SLC 9 (antibody)
chain 1: GQGTLVTVSSASTKGQPVLHQPPAMSSALGTTIRLTCTLRNDHDIGVYSVYWYQQRPGHPPRFLLRYFSQSDKSQGPQVPPRFSGSKDVARNRGYLSISELQPEDEAMYYCAMGARSRCWPRGFQSKHNSVTHVFGSGTQLTVLSQPKATPSVTLFPPSSEELQANKATLVCLMNDFYPGILTVTWKADGTPITQGVEMTTPSKQSNNKYAASSYLSLTPEQWRSRRSYSCQVMHEGSTVEKTVAPAECS
chain 2: MSWAPVLLMLFVYCTGCGPQPVLHQPPAMSSALGTTIRLTCTLRNDHDIGVYSVYWYQQRPGHPPRFLLRYFSQSDKSQGPQVPPRFSGSKDVARNRGYLSISVTHVFGSGTQLTVLSQPKATPSVQVQLVQ
B5: HC 5/SLC 5 (antibody)
chain 1: B4 chain 1
chain 2: MSWAPVLLMLFVYCTGCGPQPVLHQPPAMSSALGTTIRLTCTLRNDHDIGVYSVYWYQQRPGHPPRFLLRYFSQSDKSQGPQVPPRFSGSKDVARNRGYLSISVTHVFGSGTQLTVLSQPKAQVQLVQ
B6: HC 5/SLC 4 (antibody)
chain 1: B4 chain 1
chain 2: MSWAPVLLMLFVYCTGCGPQPVLHQPPAMSSALGTTIRLTCTLRNDHDIGVYSVYWYQQRPGHPPRFLLRYFSQSDKSQGPQVPPRFSGSKDVARNRGYLSISVTHVFGSGTQLTVLSQPKQVQLVQ
B7: HC 5/SLC 3 (antibody)
chain 1: B4 chain 1
chain 2: MSWAPVLLMLFVYCTGCGPQPVLHQPPAMSSALGTTIRLTCTLRNDHDIGVYSVYWYQQRPGHPPRFLLRYFSQSDKSQGPQVPPRFSGSKDVARNRGYLSISVTHVFGSGTQLTVLSQPQVQLVQ
B8: HC 6/SLC 9 (antibody)
chain 1: B2 chain 1
chain 2: B4 chain 2
B9: HC 7/SLC 8 (antibody)
chain 1: GQGTLVTVSSASTKGPSQPVLHQPPAMSSALGTTIRLTCTLRNDHDIGVYSVYWYQQRPGHPPRFLLRYFSQSDKSQGPQVPPRFSGSKDVARNRGYLSISELQPEDEAMYYCAMGARSRCWPRGFQSKHNSVTHVFGSGTQLTVLSQPKATPSVTLFPPSSEELQANKATLVCLMNDFYPGILTVTWKADGTPITQGVEMTTPSKQSNNKYAASSYLSLTPEQWRSRRSYSCQVMHEGSTVEKTVAPAECS
chain 2: MSWAPVLLMLFVYCTGCGPQPVLHQPPAMSSALGTTIRLTCTLRNDHDIGVYSVYWYQQRPGHPPRFLLRYFSQSDKSQGPQVPPRFSGSKDVARNRGYLSISVTHVFGSGTQLTVLSQPKATPSQVQLVQ
B10: HC 7/SLC 7 (antibody)
chain 1: B9 chain 1
chain 2: MSWAPVLLMLFVYCTGCGPQPVLHQPPAMSSALGTTIRLTCTLRNDHDIGVYSVYWYQQRPGHPPRFLLRYFSQSDKSQGPQVPPRFSGSKDVARNRGYLSISVTHVFGSGTQLTVLSQPKATPQVQLVQ
B11: HC 7/SLC 3 (antibody)
chain 1: B9 chain 1
chain 2: B7 chain 2
B12: HC 10/SLC 3 (antibody)
chain 1: GQGTLVTVSSASTKGPSVFPQPVLHQPPAMSSALGTTIRLTCTLRNDHDIGVYSVYWYQQRPGHPPRFLLRYFSQSDKSQGPQVPPRFSGSKDVARNRGYLSISELQPEDEAMYYCAMGARSRCWPRGFQSKHNSVTHVFGSGTQLTVLSQPKATPSVTLFPPSSEELQANKATLVCLMNDFYPGILTVTWKADGTPITQGVEMTTPSKQSNNKYAASSYLSLTPEQWRSRRSYSCQVMHEGSTVEKTVAPAECS
chain 2: B7 chain 2
B13: HC 4/SLC 5 (antibody)
chain 1: GQGTLVTVSSASTKQPVLHQPPAMSSALGTTIRLTCTLRNDHDIGVYSVYWYQQRPGHPPRFLLRYFSQSDKSQGPQVPPRFSGSKDVARNRGYLSISELQPEDEAMYYCAMGARSRCWPRGFQSKHNSVTHVFGSGTQLTVLSQPKATPSVTLFPPSSEELQANKATLVCLMNDFYPGILTVTWKADGTPITQGVEMTTPSKQSNNKYAASSYLSLTPEQWRSRRSYSCQVMHEGSTVEKTVAPAECS
chain 2: B5 chain 2
B14: HC 8/SLC 5 (antibody)
chain 1: GQGTLVTVSSASTKGPSVQPVLHQPPAMSSALGTTIRLTCTLRNDHDIGVYSVYWYQQRPGHPPRFLLRYFSQSDKSQGPQVPPRFSGSKDVARNRGYLSISELQPEDEAMYYCAMGARSRCWPRGFQSKHNSVTHVFGSGTQLTVLSQPKATPSVTLFPPSSEELQANKATLVCLMNDFYPGILTVTWKADGTPITQGVEMTTPSKQSNNKYAASSYLSLTPEQWRSRRSYSCQVMHEGSTVEKTVAPAECS
chain 2: B5 chain 2

Target: T1, Placenta Growth Factor (PlGF), human
Test: ELISA

In order of falling EC50:
1. B14  0.289 nM
2. B13  0.282 nM
3. B5  0.256 nM
4. B2  0.229 nM
5. B3  0.211 nM
6. B6  0.207 nM
7. B11  0.182 nM
8. B7  0.181 nM
9. B12  0.121 nM
10. B10  0.106 nM
11. B9  0.095 nM
12. B4  0.066 nM
13. B8  0.053 nM
14. B1  0.047 nM

These binders were tested against Hepatocyte Growth Factor (HGF), human (human, UniProt P14210 32-728) (assay: ELISA).
Chain of Hepatocyte Growth Factor (HGF), human (P14210 32-728): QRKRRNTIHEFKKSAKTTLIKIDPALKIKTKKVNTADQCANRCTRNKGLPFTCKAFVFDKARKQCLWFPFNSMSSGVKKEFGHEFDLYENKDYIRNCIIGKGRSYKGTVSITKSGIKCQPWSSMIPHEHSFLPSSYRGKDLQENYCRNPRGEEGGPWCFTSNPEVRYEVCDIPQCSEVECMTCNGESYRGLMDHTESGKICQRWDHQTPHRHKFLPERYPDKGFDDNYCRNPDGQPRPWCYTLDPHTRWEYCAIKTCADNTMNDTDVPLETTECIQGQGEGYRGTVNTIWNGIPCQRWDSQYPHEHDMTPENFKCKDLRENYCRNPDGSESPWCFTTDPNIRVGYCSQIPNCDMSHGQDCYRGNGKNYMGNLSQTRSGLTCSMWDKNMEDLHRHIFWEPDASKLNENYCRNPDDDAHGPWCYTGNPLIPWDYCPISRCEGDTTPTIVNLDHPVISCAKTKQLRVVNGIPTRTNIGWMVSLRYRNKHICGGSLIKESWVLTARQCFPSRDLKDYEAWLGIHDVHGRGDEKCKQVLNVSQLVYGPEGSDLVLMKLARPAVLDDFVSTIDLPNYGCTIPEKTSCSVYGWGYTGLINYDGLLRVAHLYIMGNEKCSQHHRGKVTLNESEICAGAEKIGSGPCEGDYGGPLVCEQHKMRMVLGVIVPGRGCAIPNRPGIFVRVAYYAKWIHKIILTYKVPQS

In order of falling EC50:
1. B12  0.074 nM
2. B11  0.067 nM
3. B6  0.065 nM
4. B7  0.064 nM
5. B5  0.063 nM
6. B14  0.063 nM
7. B3  0.062 nM
8. B2  0.06 nM
9. B13  0.059 nM
10. B9  0.056 nM
11. B10  0.056 nM
12. B4  0.052 nM
13. B1  0.049 nM
14. B8  0.047 nM

— patent US20150045540A1 (published 2015)
